Substitutions are numbered along the chain they refer to. Values belong to the binder of their own block, whether it stands above or below them.
Experiments:
Assay in all cases: BIACORE
[1] = biological target: T1, recombinant human FKN (R&D Systems, Catalog No. 362-CX/CF) (UniProt P78423 25-100)
T1 chain: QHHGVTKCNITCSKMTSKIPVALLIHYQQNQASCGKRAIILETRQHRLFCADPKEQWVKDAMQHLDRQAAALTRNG

[2] = biological target: T2, soluble hFKN-SEAP (extracellular region of human fractalkine conjugated to secreted alkaline phosphatase) (UniProt P78423 25-341)
T2 chain: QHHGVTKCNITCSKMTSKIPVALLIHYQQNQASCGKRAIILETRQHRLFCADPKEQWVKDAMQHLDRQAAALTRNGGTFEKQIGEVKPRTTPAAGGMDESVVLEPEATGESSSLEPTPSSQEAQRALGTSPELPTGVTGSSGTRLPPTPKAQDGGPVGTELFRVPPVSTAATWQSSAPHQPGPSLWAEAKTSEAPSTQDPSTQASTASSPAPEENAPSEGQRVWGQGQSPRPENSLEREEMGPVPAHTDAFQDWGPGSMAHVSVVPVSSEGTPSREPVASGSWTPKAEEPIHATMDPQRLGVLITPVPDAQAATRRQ

[3] = biological target: cynomolgus FKN-SEAP (human;)

Kd [1]: 600 pM
B1: mouse anti-hFKN mAb clone 3A5-2 (antibody, V domains shown)
VH: QVQLQQSGPELVKPGASVKMSCKASGYTFTNYYIHWVKQRPGQGLEWIGWIYPGDGSPKFNERFKGKTTLTADKSSNTAYMLLSSLTSEDSAIYFCATGPTDGDYFDYWGQGTTLTVSS
VL: DIQMTQSPASLSASVGETVTITCRASGNIHNFLAWYQQKQGKSPQFLVYNEKTLADGVPSRFSGSGSGTQYSLKINSLQPEDFGIYFCQQFWSTPYTFGGGTKLEIK

Kd [2]: 7.13 pM
B2: mouse-human chimeric 3A5-2 mAb (antibody, V domains shown)
VH: B1 VH
VL: B1 VL

Kd [2]: 8.84 pM
B4: humanized anti-hFKN mAb H3L2-IgG2 (antibody, V domains shown)
VH: QVQLVQSGAEVKKPGASVKVSCKASGYTFTNYYIHWVKQAPGQGLEWIGWIYPGDGSPKFNERFKGRTTLTADKSTNTAYMLLSSLRSDDTAVYFCATGPTDGDYFDYWGQGTTVTVSS
VL: DIQMTQSPSSLSASVGDRVTITCRASGNIHNFLAWYQQKPGKAPKFLVYNEKTLADGVPSRFSGSGSGTQYTLTISSLQPEDFATYFCQQFWSTPYTFGGGTKVEIK

Kd [2]: 6.43 pM
B9: humanized anti-hFKN mAb H3-L4-IgG2 (antibody, V domains shown)
VH: B4 VH
VL: B4 VL with F46L, V48I, Q70D

Further lines, the binder ahead of its results:

B3: chimeric (antibody, V domains shown)
VH: B1 VH
VL: B1 VL
Kd [3]: 6.62 pM

B5: H3L4 (antibody, V domains shown)
VH: B4 VH
VL: B4 VL with F46L, V48I, Q70D
Kd [3]: 12 pM

B6: HK2L4 (antibody, V domains shown)
VH: B4 VH with K38R, L70M, K74T, N77S, L82E, D89E, T98R
VL: B4 VL with F46L, V48I, Q70D
Kd [3]: 26 pM

B7: H3L2 (antibody, V domains shown)
VH: B4 VH
VL: B4 VL
Kd [3]: 9.62 pM

B8: humanized anti-hFKN mAb H3-2L4-IgG2 (antibody, V domains shown)
VH: B4 VH with D89E
VL: B4 VL with F46L, V48I, Q70D
Kd [2]: 5.34 pM

B10: H3-2L2 (antibody, V domains shown)
VH: B4 VH with D89E
VL: B4 VL
Kd [3]: 6.75 pM

B11: H3-2L4 (antibody, V domains shown)
VH: B4 VH with D89E
VL: B4 VL with F46L, V48I, Q70D
Kd [3]: 7.71 pM

B12: humanized anti-hFKN mAb H3-2L2-IgG2 (antibody, V domains shown)
VH: B4 VH with D89E
VL: B4 VL
Kd [2]: 5.92 pM

— patent US20120213799A1 (published 2012)
